The text below walks through data of PMC2095792 (Nucleic Acids Research, 2007).

First the molecules themselves.
B1: Pop1p (natural protein)
chain: MSGSLSRGNGGKKVLNKNQLLKRNRIRNARSIRAEAVAASSTKTGTPSDLSESGSKLNVDQFISSRQFEVKQLQLAMHNSKAASSTRIFQALPRKLRRRTASHNVRRIPKRMRNRALREMRKSDQQDVLKGSSASSRKAHGLNAKQLYKARMSIKLLRLASKSTSMKLSMPPEVTSSNCHVRQKIKTLKRMIKESSTANPNIKLLNNRMGSYDCTGVNELAPIPKGRVKYTKRQKHFAWLPTHIWNAKRSHMMKRWGYQMVWAPTQKCFKLTHRLGGDTCSSDGALCMDSSYIGTIIVKDKSNDSEGDFLKSIIGKLTAERANLRKYREGQVLFQGLIYSFNEENGEDSTKPLGPCDVFWVQKDTAIIRLHPSIYTQVFNILLQHKEKLTVQDCRYSLASVTLKGAKALESLASCLRSTEYSKSFEQFKMVSMITDHNALPQRCTFAFEAIDPRHLAAPKKLNDSQRKTVNSDDILSLHENYPQDEINAVFNELCDPESRTQSYNNQNTLKEISARRYKLLTATPNSINKTTVPFKESDDPSIPLVIIRRLKTRDWIVVLPWFWLLPLWHLLNRIPRMYHIGLRQFQQIQYENKQLYFPDDYPFTQLGYIENSFYKKEASKTKWDRKPMGKRINFEKIKDIHNTKLPAYSGEIGDFFSSDWRFLQILRNGIDYLQRNDKTLELMDSKKTGQFNAQGVRDINCVNDVLEFCKDYEAKTKAMSLSIEENIPVALCKNRKCQFRTPDSISVNSSSFSLTFFPRCIIAVSCTLLERGHPKDNARIYQVPEKDLEHWLQLAKGVYRPNGRKDHDLKIPLPEVHDLIGFITSGTYHLNCGNGMGIGFIDHHAAIRQPTRYVLIRNVGTNTYRLGEWSKISV
modifications: 32P-phosphate on the RRASV site (bovine heart kinase), in the untagged radiolabelled form only
B2: Rpp1p (natural protein)
chain: MLVDLNVPWPQNSYADKVTSQAVNNLIKTLSTLHMLGYTHIAINFTVNHSEKFPNDVKLLNPIDIKRRFGELMDRTGLKLYSRITLIIDDPSKGQSLSKISQAFDIVAALPISEKGLTLSTTNLDIDLLTFQYGSRLPTFLKHKSICSCVNRGVKLEIVYGYALRDVQARRQFVSNVRSVIRSSRSRGIVIGSGAMSPLECRNILGVTSLIKNLGLPSDRCSKAMGDLASLVLLNGRLRNKSHKQTIVTGGGSGNGDDVVNDVQGIDDVQTIKVVKRSMDAEQLGHASKRHKP
modifications: 32P-phosphate on the RRASV site (bovine heart kinase), in the untagged radiolabelled form only
B3: Pop4p (natural protein)
chain: MDRTQTFIKDCLFTKCLEDPEKPFNENRFQDTLLLLPTDGGLTSRLQRQQRKSKLNLDNLQKVSQLESADKQLEKRDYQRINKNSKIALREYINNCKKNTKKCLKLAYENKITDKEDLLHYIEEKHPTIYESLPQYVDFVPMYKELWINYIKELLNITKNLKTFNGSLALLKLSMADYNGALLRVTKSKNKTLIGLQGIVIWDSQKFFIMIVKGNIIDEIKCIPKKGTVFQFEIPISDDDDSALRYSILGDRFKYRSVDRAGRKFKSRRCDDMLYYIQN
modifications: 32P-phosphate on the RRASV site (bovine heart kinase), in the untagged radiolabelled form only
B4: Pop3p (natural protein)
chain: MSGSLKSLDKKIAKRRQVYKPVLDNPFTNEAHMWPRVHDQPLIWQLLQSSIINKLIHIQSKENYPWELYTDFNEIVQYLSGAHGNSDPVCLFVCNKDPDVPLVLLQQIPLLCYMAPMTVKLVQLPKSAMDTFKSVSKYGMLLLRCDDRVDKKFVSQIQKNVDLLQFPWLNAIKYRPTSVKLLKTTVPIVSKKRQK
modifications: 32P-phosphate on the RRASV site (bovine heart kinase), in the untagged radiolabelled form only

This series deals with the molecule itself. The series is described as follows: pull-down.
For B1, the binding result is listed as “binds”. As for B2, the binding result is “binds”. Regarding B3, the binding result is recorded as “binds”. As for B4, the entry is “binds”.
